Laboratory results: paper PMC3260422 (Structure(London, England:1993), 2011)

Molecular target: T1, human Colony Stimulating Factor-1 (hCSF-1), residues 1-149 (human)
T1 sequence (P09603 whole entry, looked up): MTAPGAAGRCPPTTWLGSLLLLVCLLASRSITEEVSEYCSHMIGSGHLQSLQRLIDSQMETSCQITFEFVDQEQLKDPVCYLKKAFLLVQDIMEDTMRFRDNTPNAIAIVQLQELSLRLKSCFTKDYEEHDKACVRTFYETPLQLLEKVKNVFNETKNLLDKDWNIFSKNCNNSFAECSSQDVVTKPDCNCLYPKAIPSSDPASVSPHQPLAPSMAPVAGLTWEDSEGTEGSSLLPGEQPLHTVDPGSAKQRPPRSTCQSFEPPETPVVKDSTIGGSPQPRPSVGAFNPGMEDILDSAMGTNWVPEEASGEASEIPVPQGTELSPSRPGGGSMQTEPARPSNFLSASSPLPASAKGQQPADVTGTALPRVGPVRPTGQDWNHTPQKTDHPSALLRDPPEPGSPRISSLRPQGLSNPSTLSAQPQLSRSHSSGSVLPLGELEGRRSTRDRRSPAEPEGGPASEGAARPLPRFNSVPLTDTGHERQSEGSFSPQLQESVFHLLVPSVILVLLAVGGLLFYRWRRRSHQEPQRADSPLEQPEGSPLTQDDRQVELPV
Test: ITC

Kd: 213 nM
B1: human CSF-1 receptor, first three extracellular domains (hCSF-1R_(D1-D3)) (domain or fragment)
chain: IPVIEPSVPELVVKPGATVTLRCVGNGSVEWDGPPSPHWTLYSDGSSSILSTNNATFQNTGTYRCTEPGDPLGGSAAIHLYVKDPARPWNVLAQEVVVFEDQDALLPCLLTDPVLEAGVSLVRVRGRPLMRHTNYSFSPWHGFTIHRAKFIQSQDYQCSALMGGRKVMSISIRLKVQKVIPGPPALTLVPAELVRIRGEAAQIVCSASSVDVNFDVFLQHNNTKLAIPQQSDFHNNRYQKVLTLNLDQVDFQHAGNYSCVASNVQGKHSTSMFFRVVES
modifications: N-linked glycosylation (produced with kifunensine)
